This note sets out measurements from patent US20240368668.

Series [1] concerns the target Q68SA9.
The target in series [2] is T1, purified recombinant human HA-tagged EFEMP1/Fibulin-3 (R&D, 8416-FB), Q12805.
T1 chain: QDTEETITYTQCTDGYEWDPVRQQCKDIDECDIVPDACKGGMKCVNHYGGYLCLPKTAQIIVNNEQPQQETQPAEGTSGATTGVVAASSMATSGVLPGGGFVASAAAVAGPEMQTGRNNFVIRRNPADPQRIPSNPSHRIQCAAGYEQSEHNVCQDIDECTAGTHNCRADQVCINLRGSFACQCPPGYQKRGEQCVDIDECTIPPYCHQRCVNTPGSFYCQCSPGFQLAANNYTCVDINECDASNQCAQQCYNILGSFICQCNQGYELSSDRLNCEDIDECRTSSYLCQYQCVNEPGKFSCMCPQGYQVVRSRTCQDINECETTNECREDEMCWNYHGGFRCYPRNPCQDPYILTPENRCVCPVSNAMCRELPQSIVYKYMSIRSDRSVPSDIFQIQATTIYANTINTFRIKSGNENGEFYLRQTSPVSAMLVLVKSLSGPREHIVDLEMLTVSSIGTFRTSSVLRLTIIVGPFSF

The target of series [3] is T2, endogenous EFEMP1 (EGF-containing fibulin-like extracellular matrix protein 1, Fibulin-3) secreted by HUVEC, Q12805.
T2 chain: T1 chain

Residue numbers refer to the chain shown, from its start. Names and notes keep the numbering of the source.

B1: purified full-length mouse ADAMTS7 S3A WT 3xFlag (protein)
chain: SVAKEKWVETLVVADSKMVEYHGQPQVESYVLTIMNMVAGLFHDPSIGNPIHISIVRLIILEDEEKDLKITHHAEETLKNFCRWQKNINIKGDDHPQHHDTAILLTRKDLCASMNQPCETLGLSHVSGLCHPQLSCSVSEDTGMPLAFTVAHELGHSFGIQHDGTGNDCESIGKRPFIMSPQLLYDRGIPLTWSRCSREYITRFLDRGWGLCLDDRPSKDVIALPSVLPGVLYDVNHQCRLQYGSHSAYCEDMDDVCHTLWCSVGTTCHSKLDAAVDGTSCGKNKWCLKGECVPEGFQPEAVDGGWSGWSAWSDCSRSCGVGVRSSERQCTQPVPKNRGKYCVGERKRSQLCNLPACPPDRPSFRHTQCSQFDGMLYKGKLHKWVPVPNDDNPCELHCRPSNSSNTEKLRDAVVDGTPCYQSRISRDICLNGICKNVGCDFVIDSGAEEDRCGVCRGDGSTCQTVSRTFKETEGQGYVDIGLIPAGAREILIEEVAEAANFLALRSEDPDKYFLNGGWTIQWNGDYRVAGTTFTYARKGNWENLTSPGPTSEPVWIQLLFQEKNPGVHYQYTIQRDSHDQVRPPEFSWHYGPWSKCTVTCGTGVQRQSLYCMERQAGVVAEEYCNTLNRPDERQRKCSEEPCPPRWWAGEWQPCSRSCGPEGLSRRAVFCIRSMGLDEQRALELSACEHLPRPLAETPCNRHVICPSTWGVGNWSQCSVTCGAGIRQRSVLCINNTDVPCDEAERPITETFCFLQPCQYPMYIVDTGASGSGSSSPELFNEVDFIPNQLAPRPSPASSPKPVSISNAIDEEELDPPGPVFVDDFYYDYNFINFHEDLSYGSFEEPHPDLVDNGGWTAPPHIRPTESPSDTPVPTAGALGAEAEDIQGSWSPSPLLSEASYSPPGLEQTSINPLANFLTEEDTPMGAPELGFPSLPWPPASVDDMMTPVGPGNPDELLVKEDEQSPPSTPWSDRNKLSTDGNPLGHTSPALPQSPIPTQPSPPSISPTQASPSPDVVEVSTGWNAAWDPVLEADLKPGHGELPSTVEVASPPLLPMATVPGIWGRDSPLEPGTPTFSSPELSSQHLKTLTMPGTLLLTVPTDLRSPGPSGQPQTPNLEGTQSPGLLPTPARETQTNSSKDPEVQPLQPSLEEDGDPADPLPARNASWQVGNWSQCSTTCGLGAIWRLVSCSSGNDEDCTLASRPQPARHCHLRPCAAWRTGNWSKCSRNCGGGSSTRDVQCVDTRDLRPLRPFHCQPGPTKPPNRQLCGTQPCLPWYTSSWRECSEACGGGEQQRLVTCPEPGLCEESLRPNNSRPCNTHPCTQWVVGPWGQCSAPCGGGVQRRLVRCVNTQTGLAEEDSDLCSHEAWPESSRPCATEDCELVEPPRCERDRLSFNFCETLRLLGRCQLPTIRAQCCRSCPPLSRGVPSRGHQRVARR
As to B1, in series [1], the “auto-cleavage, peptide sequencing of the purified protein” value is “Peptide sequencing (Tufts University Core Facility) of the lower band or the total purified WT S3A protein identified a potential auto-cleavage site at F1062 (SYGS|FEEP)”. Moreover, the “in vitro cleavage, 4 hours at 37 C, western blot” value in series [2] was “Full-length HA-EFEMP1 was detected at the expected position and a lower band was detected matching the predicted HA tagged amino terminus after cleavage by ADAMTS7 in the atypical first EGF domain”.

B2: full-length mouse Adamts7 1-1857 E373Q catalytic mutant with a carboxyl terminal 3xFLAG tag, expressed from adenovirus (protein)
chain: B1 chain with A3S, E153Q
Consider B2, for which the “cleavage of endogenous EFEMP1 in HUVEC media, mass spectrometry” value in series [3] is reported as “these sites were not detected in the Luc or EQ samples”.

B3: purified full-length mouse ADAMTS7 S3A EQ (catalytic mutant E373Q) (protein)
chain: B1 chain with E153Q
For B3, the “in vitro cleavage, western blot and mass spectrometry of gel bands” value in series [2] is reported as “background cleavage under conditions with no enzyme or with ADAMTS7 S3A EQ treatment, however these occurrences were relatively minor compared to the activity stimulated by ADAMTS7 S3A WT”.

B4: full-length mouse Adamts7 1-1857 WT with a carboxyl terminal 3xFLAG tag, expressed from adenovirus (protein)
chain: B1 chain with A3S
Take B4: the “auto-cleavage, western blot of HUVEC media” value in series [1] was “ADAMTS7 WT migrated at two bands matching the observed autocleavage event in the mucin domain”. In addition, in series [3], the “cleavage of endogenous EFEMP1 in HUVEC media, western blot and mass spectrometry” value is “identified semi-tryptic and semi-chymotryptic peptides indicating cleavage at 123.124 and 124.125 sites from the Ad-ADAMTS7 WT sample”; the “relative cleavage at 123.124 against 124.125 (TAILS log FC and total intensities)” value was “predicting 2-3 fold more cleavage at 123.124 (ASAA|AVAG) (SEQ ID NO: 1) compared to the adjacent 124.125 (SAAA|VAGP) (SEQ ID NO: 2) site”.
